In PMC11253607, “A conserved inhibitory interdomain interaction regulates DNA-binding activities of hybrid two-component systems in Bacteroides” (mBio, 2024):

Key:
Experiment in all cases: Phos-tag gel autophosphorylation, initial rates, Michaelis-Menten fit
Assay type in all cases: biochemical, Bacteroides thetaiotaomicron
Settings in all cases: phospho-donor, 50 mM Tris pH 7.5, 100 mM NaCl, 5 mM BME, 5 mM MgSO4, 5 µM protein
NP(=O)(O)O [1] = test system: NP(=O)(O)O
Description: Phos-tag gel autophosphorylation, initial rates, Michaelis-Menten fit on BT3334-REC | RECs have higher kcat and lower Km values than RRs

NP(=O)(O)O [2] = test system: NP(=O)(O)O; remark: listed apart in the source
Description: Phos-tag gel autophosphorylation, initial rates, Michaelis-Menten fit on BT3334-RR | RECs have higher kcat and lower Km values than RRs

NP(=O)(O)O [3] = test system: NP(=O)(O)O; remark: listed apart in the source
Description: Phos-tag gel autophosphorylation, initial rates, Michaelis-Menten fit on BT4124-REC | RECs have higher kcat and lower Km values than RRs

NP(=O)(O)O [4] = test system: NP(=O)(O)O; remark: listed apart in the source
NP(=O)(O)O [5] = test system: NP(=O)(O)O; remark: listed apart in the source
Description: Phos-tag gel autophosphorylation, initial rates, Michaelis-Menten fit on BT4124-RR | RECs have higher kcat and lower Km values than RRs

NP(=O)(O)O [6] = test system: NP(=O)(O)O; remark: listed apart in the source
Description: Phos-tag gel autophosphorylation, initial rates, Michaelis-Menten fit on BT4663-REC | RECs have higher kcat and lower Km values than RRs

NP(=O)(O)O [7] = test system: NP(=O)(O)O; remark: listed apart in the source
Description: Phos-tag gel autophosphorylation, initial rates, Michaelis-Menten fit on BT4663-RR | RECs have higher kcat and lower Km values than RRs

BT3334-REC (Bacteroides thetaiotaomicron VPI-5482)
Km (NP(=O)(O)O [1]): 4.5 ± 0.8 mM
kcat (NP(=O)(O)O [1]): 0.02 ± 0.0017 s⁻¹

BT3334-RR (Bacteroides thetaiotaomicron VPI-5482)
Km (NP(=O)(O)O [2]): 7.8 ± 2.4 mM
kcat (NP(=O)(O)O [2]): 0.0095 ± 0.00083 s⁻¹

BT4124-REC (Bacteroides thetaiotaomicron VPI-5482)
Km (NP(=O)(O)O [3]): 10 ± 1 mM
kcat (NP(=O)(O)O [3]): 0.0233 ± 0.0017 s⁻¹

BT4124-REC (Bacteroides thetaiotaomicron VPI-5482; C1262A/H1263D)
Km (NP(=O)(O)O [4]): 13 ± 2 mM
kcat (NP(=O)(O)O [4]): 0.0267 ± 0.0017 s⁻¹

BT4124-RR (Bacteroides thetaiotaomicron VPI-5482)
Km (NP(=O)(O)O [5]): 17 ± 2 mM
kcat (NP(=O)(O)O [5]): 0.00833 ± 0.0005 s⁻¹

BT4124-RR (Bacteroides thetaiotaomicron VPI-5482; C1262A/H1263D)
Km (NP(=O)(O)O [4]): 8.5 ± 1.5 mM
kcat (NP(=O)(O)O [4]): 0.02 ± 0.0017 s⁻¹

BT4124-RR (Bacteroides thetaiotaomicron VPI-5482; C1262A/H1263G)
Km (NP(=O)(O)O [4]): 13 ± 3 mM
kcat (NP(=O)(O)O [4]): 0.0183 ± 0.0017 s⁻¹

BT4663-REC (Bacteroides thetaiotaomicron VPI-5482)
Km (NP(=O)(O)O [6]): 14 ± 4 mM
kcat (NP(=O)(O)O [6]): 0.0135 ± 0.0017 s⁻¹

BT4663-RR (Bacteroides thetaiotaomicron VPI-5482)
Km (NP(=O)(O)O [7]): 33 ± 6 mM
kcat (NP(=O)(O)O [7]): 0.0035 ± 0.00033 s⁻¹
